Laboratory results: patent US20250250312A1, “BIFUNCTIONAL PEPTIDE WITH MU[…] VIRUS BINDING PROPERTIES” (priority 2022, published 2025)
Read-outs that look alike come from different tables or passages of the source.

Experiments:
[1] = molecular target: T1, receptor binding domain (RBD) of SARS-CoV-2 wildtype (2019-nCoV) (SARS-CoV-2), P0DTC2
[2] = molecular target: T1, receptor binding domain (RBD) of …; remark: listed apart in the source
[3] = molecular target: T1, receptor binding domain (RBD) of …; remark: listed apart in the source
[4] = molecular target: receptor binding domain (RBD) of SARS-CoV-2 alpha variant (B.1.1.7) (SARS-CoV-2), P0DTC2
[5] = molecular target: receptor binding domain (RBD) of SARS-CoV-2 delta variant (B.1.617.2) (SARS-CoV-2), P0DTC2

For EAAAKEEQAKTFLDKFNHEAEDLFYQSSGLGKGDFR (modifications not checked) [p6-rigid], the Kd [1] was 4530 nM.

Work on EEQAKTFCDKFNHEAEDLFYQSS (modifications not checked) [p4C8] yielded a Kd [2] of 281 nM.

In the case of EEQAKTFLDKFNCEAEDLFYQSS (modifications not checked) [p4C13], the Kd [2] is reported as 28 nM.

Work on EEQAKTFLCKFNHEAEDLFYQSS (modifications not checked) [p4C9] yielded a Kd [2] of 3230 nM.

For EEQAKTFKDKFDHEAEDKFYQDSGLGKGDFR (modifications not checked) [p6(K)8,18(D)12,22], the Kd [3] was 10000 nM.

EEQAKTFCDKFCHEAEDLFYQSS (modifications not checked) [p4C8, 12] gave a Kd [2] of 47 nM.

In the case of EEQACTFLDKFNHEAEDLFYQSS (modifications not checked) [p4C5], the Kd [2] is reported as 2140 nM.

With EEQAKTFLDKFNHEAEDLFYQSSGLGKGDFR (modifications not checked) [p6 peptide] the Kd [4] was 320 nM and the Kd [5] was 190 nM.

EEQAKTFLDKCNHEAEDLFYQSS (modifications not checked) [p4C11] was tested, and the Kd [2] was 12 nM.

EEQAKTFLDKFNHEAEDCFYQCS (modifications not checked) [p4C18, 22] was tested, and the Kd [2] was 218 nM.

For ECQAKTFLDKFNHEAEDLFYQSS (modifications not checked) [p4C2], the Kd [2] was 34 nM.

With EEQCKTFLDKFNHEAEDLFYQSS (modifications not checked) [p4C4] the Kd [2] was 1300 nM.

EEQAKTFLDKFNHECEDLCYQSS (modifications not checked) [p4C15, 19] was tested, and the Kd [2] was 238 nM.

For EEQAKTFLDKCNHECEDLFYQSS (modifications not checked) [p4C11, 15], the Kd [2] was 68 nM.

With EECAKTFLDKFNHEAEDLFYQSS (modifications not checked) [p4C3] the Kd [2] was 42 nM.

Binder EEQCKTFCDKFNHEAEDLFYQSS (modifications not checked) [p4C4, 8] has a Kd [2] of 59 nM.

For EEQAKTFLDKFCHEAEDLFYQSS (modifications not checked) [p4C12], the Kd [2] was 2050 nM.

With EEQAKTFLDCFNHEAEDLFYQSS (modifications not checked) [p4C10] the Kd [2] was 331 nM.

Work on EEQAKTCLDKFNHEAEDLFYQSS (modifications not checked) [p4C7] yielded a Kd [2] of 1940 nM.

EEQCKTFCDKFNHEAEDCFYQCS (modifications not checked) [p4C4, 8, 18, 22] showed a Kd [2] of 400 nM.

With EAAAKEEQAKTFLDKFNHEAEDLFYQSCGLGKGDFRC (modifications not checked) [p6-rigid-dis] the Kd [1] was 5140 nM.

Binder EEQAKTFLDKFNHEAEDLFYQSCGLGKGDFRC (modifications not checked) [p6-dis] has a Kd [1] of 2600 nM.
